Patent US20240279356A1 (Xencor, published 2024)
Where a chain is given by its changes, count along the chain named. Names and notes keep the numbering of the source.

B1: XENP32565 (bispecific antibody)
Fab-Fc heavy chain (anti-MSLN VH): QVQLVQSGAEVKKPGASVKVSCKASGYTFTSYWMHWVRQAPGQGLEWMGMIHPNSDNTIYYEKFQGRVTMTVDKSISTAYMELSRLRSDDTAVYYCAIIITPVVPKFDYWGQGTLVTVSSASTKGPSVFPLAPSSKSTSGGTAALGCLVKDYFPEPVTVSWNSGALTSGVHTFPAVLQSSGLYSLSSVVTVPSSSLGTQTYICNVNHKPSDTKVDKKVEPKSCDKTHTCPPCPAPPVAGPSVFLFPPKPKDTLMISRTPEVTCVVVDVKHEDPEVKFNWYVDGVEVHNAKTKPREEEYNSTYRVVSVLTVLHQDWLNGKEYKCKVSNKALPAPIEKTISKAKGQPREPQVYTLPPSREEMTKNQVSLTCDVSGFYPSDIAVEWESDGQPENNYKTTPPVLDSDGSFFLYSKLTVDKSRWEQGDVFSCSVMHEALHNHYTQKSLSLSPGK
scFv-Fc heavy chain (anti-CD3 H1.30_L1.47): not shown
light chain (anti-MSLN VL): DIVMTQSPDSLAVSLGERATINCKASHDVGTSVAWYQQKPGQSPKLLIYWASTRETGVPDRFTGSGSGTDFTLTISSLQAEDVAVYFCQQYSSYPLTFGAGTKLEIKRTVAAPSVFIFPPSDEQLKSGTASVVCLLNNFYPREAKVQWKVDNALQSGNSQESVTEQDSKDSTYSLSSTLTLSKADYEKHKVYACEVTHQGLSSPVTKSFNRGEC
notes: 1+1 Fab-scFv-Fc bsAb; VH WT, VL H55E (Kabat); also called MESO-C H1_L1.7
B2: XENP32570 (bispecific antibody)
heavy: B1 Fab-Fc heavy chain (anti-MSLN VH) with D56G
scFv-Fc: not shown
light: B1 light chain (anti-MSLN VL) with D28S, E55H
notes: VH D55G, VL D28S (Kabat); also called MESO-C H1.6_L1.3; copies: 1 + 1 + 1
B3: XENP32566 (bispecific antibody)
Fab-Fc heavy chain (anti-MSLN VH): B1 Fab-Fc heavy chain (anti-MSLN VH)
scFv-Fc heavy chain (anti-CD3 H1.30_L1.47): not shown
light chain (anti-MSLN VL): B1 light chain (anti-MSLN VL) with E55H, T56S
notes: 1+1 Fab-scFv-Fc bsAb; VH WT, VL T56S (Kabat); also called MESO-C H1_L1.8
B4: XENP32569 (bispecific antibody)
heavy: B1 Fab-Fc heavy chain (anti-MSLN VH) with N54Q
scFv-Fc: not shown
light: B1 light chain (anti-MSLN VL) with D28S, E55H
notes: VH N53Q, VL D28S (Kabat); also called MESO-C H1.5_L1.3; copies: 1 + 1 + 1
B5: XENP32568 (bispecific antibody)
Fab-Fc heavy chain (anti-MSLN VH): B1 Fab-Fc heavy chain (anti-MSLN VH)
scFv-Fc heavy chain (anti-CD3 H1.30_L1.47): not shown
light chain (anti-MSLN VL): B1 light chain (anti-MSLN VL) with E55H, Y94T
notes: 1+1 Fab-scFv-Fc bsAb; VH WT, VL Y94T (Kabat); also called MESO-C H1_L1.10
B6: XENP32939 (bispecific antibody)
heavy: B1 Fab-Fc heavy chain (anti-MSLN VH) with M50W
scFv-Fc: not shown
light: B1 light chain (anti-MSLN VL) with T31Q, E55H
notes: VH M50W, VL T37Q as printed; also called MESO-C H1.3_L1.13; copies: 1 + 1 + 1
B7: XENP32940 (bispecific antibody)
heavy: B1 Fab-Fc heavy chain (anti-MSLN VH) with M50W
scFv-Fc: not shown
light: B1 light chain (anti-MSLN VL) with E55H, Y94F
notes: VH M50W, VL Y100F as printed; also called MESO-C H1.3_L1.14; copies: 1 + 1 + 1
B8: XENP32943 (bispecific antibody)
heavy: B1 Fab-Fc heavy chain (anti-MSLN VH) with M50W
scFv-Fc: not shown
light: B1 light chain (anti-MSLN VL) with E55H, Y94I
notes: VH M50W, VL Y94I as printed; also called MESO-C H1.3_L1.17; copies: 1 + 1 + 1
B9: XENP32938 (bispecific antibody)
heavy: B1 Fab-Fc heavy chain (anti-MSLN VH) with E62Y
scFv-Fc: not shown
light: B1 light chain (anti-MSLN VL) with E55H, S92Y
notes: VH E61Y, VL S92Y as printed; also called MESO-C H1.13_L1.9; copies: 1 + 1 + 1

Target: T1, cyno MSLN (Macaca fascicularis (cynomolgus))
T1 construct: soluble antigen for Octet; also called cynomolgus MSLN
Assay: Octet BLI; bsAb on anti-human Fc sensor, cyno MSLN as analyte, one concentration

Point of comparison: B4, Kd 0.189 nM. Against it:
- B1 — within 1.5-fold, 0.255 nM
- B2 — within 1.5-fold, 0.155 nM
- B3 — within 1.5-fold, 0.163 nM

Point of comparison: B2, Response 0.95. Against it:
- B1 — higher, 1
- B3 — lower, 0.941
- B4 — lower, 0.867
- B5 — lower, 0.0728

Point of comparison: B2, koff 0.000105 s⁻¹. Against it:
- B1 — within 1.5-fold, 0.000151 s⁻¹
- B3 — within 1.5-fold, 0.0001 s⁻¹
- B4 — within 1.5-fold, 0.000125 s⁻¹

Point of comparison: B3, kon 616000 M⁻¹ s⁻¹. Against it:
- B1 — within 1.5-fold, 592000 M⁻¹ s⁻¹
- B2 — within 1.5-fold, 676000 M⁻¹ s⁻¹
- B4 — within 1.5-fold, 660000 M⁻¹ s⁻¹

Target: T2, human MSLN antigen (human, UniProt Q13421 296-580, limits assumed)
T2 construct: Soluble antigen for BLI; also called Mesothelin; MESO
T2 sequence (Q13421 other isoform, or with tags, fused parts or gaps limits assumed): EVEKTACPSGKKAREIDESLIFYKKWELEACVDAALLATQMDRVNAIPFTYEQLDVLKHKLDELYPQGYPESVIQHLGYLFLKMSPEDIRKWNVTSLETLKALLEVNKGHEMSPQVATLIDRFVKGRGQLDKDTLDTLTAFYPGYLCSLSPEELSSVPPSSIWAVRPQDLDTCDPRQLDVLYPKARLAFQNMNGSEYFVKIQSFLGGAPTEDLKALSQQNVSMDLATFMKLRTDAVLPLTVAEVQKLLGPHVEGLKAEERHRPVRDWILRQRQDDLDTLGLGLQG
Assay: Octet BLI; bsAb on anti-human Fc sensor, human MSLN as analyte, one concentration
Parameters: Response: unit not given here
Description: (§1) Variants of MESO-C were engineered by introducing point substitutions into the variable heavy region (VH) and the variable light region (VL) to generate 11 VH variants and 16 VL variants (sequences for which are depicted in FIG. 18 as H1.1-H1.13 and in FIG. 19 as L1.1-L1.18). An additional 4 VL variants were generated by combining useful point substitutions (sequences for which are depicted in FIG. 19 as L1.19-L1.22). WT and variant variable heavy regions were paired with WT and variant variable light regions to generate variant variable regions (Fvs) which were produced in the context of anti-MSLN×anti-CD3 bispecific antibodies. The bispecific antibodies were screened for MSLN binding affinity using Octet®, a BioLayer Interferometry (BLI)-based method. Experimental steps for Octet® generally include the following: Immobilization (capture of ligand to a biosensor); Association (dipping of ligand-coated biosensors into wells containing the analyte); and Dissociation (returning of biosensors to well containing buffer). In an initial screening, anti-human Fc sensors were used to capture the bispecific mAbs and dipped into human MSLN antigen (one concentration to screen large library). The resulting dissociation constant of illustrative variants (KD), association rate (kₐ), dissociation rate (kd), as well as sensorgram response are depicted in FIG. 20. In further screening of favorite variants identified in the initial screen (and combination variants), bispecific mAbs were dipped into multiple concentrations of human MSLN antigen, data for which are depicted in FIG. 21 (from various screens).

Point of comparison: B2, Kd 0.103 nM. Against it:
- B1 — 2.8-fold higher, 0.286 nM
- B3 — 1.7-fold higher, 0.18 nM
- B4 — within 1.5-fold, 0.135 nM

Point of comparison: B5, Response 0.107. Against it:
- B1 — higher, 1.11
- B2 — higher, 0.981
- B3 — higher, 1.05
- B4 — higher, 0.978

Point of comparison: B2, koff 7.35e-05 s⁻¹. Against it:
- B1 — 2.3-fold higher, 0.000169 s⁻¹
- B3 — 1.5-fold higher, 0.000113 s⁻¹
- B4 — within 1.5-fold, 9.35e-05 s⁻¹

Point of comparison: B4, kon 693000 M⁻¹ s⁻¹. Against it:
- B1 — within 1.5-fold, 590000 M⁻¹ s⁻¹
- B2 — within 1.5-fold, 717000 M⁻¹ s⁻¹
- B3 — within 1.5-fold, 627000 M⁻¹ s⁻¹

Target: T2, human MSLN antigen
Assay: Octet BLI; bsAb on anti-human Fc sensor, human MSLN as analyte, several concentrations
Description: as §1

Point of comparison: B6, Kd 90.4 nM. Against it:
- B7 — 2.7-fold higher, 246 nM
- B9 — 5.6-fold lower, 16.2 nM

Point of comparison: B8, Response 0.0022. Against it:
- B6 — higher, 0.202
- B7 — higher, 0.136
- B9 — higher, 0.169

Point of comparison: B9, koff 0.0103 s⁻¹. Against it:
- B6 — 3.7-fold higher, 0.0383 s⁻¹
- B7 — 7.9-fold higher, 0.0816 s⁻¹

Point of comparison: B7, kon 332000 M⁻¹ s⁻¹. Against it:
- B6 — within 1.5-fold, 424000 M⁻¹ s⁻¹
- B9 — 1.9-fold higher, 635000 M⁻¹ s⁻¹

B8: no binding.
